Measured values taken from the supplement of paper PMC10126150.
± gives the standard deviation of the averaged measurements.

Test system: ATP
Experiment: switch fluorescence ratio, 500 uM ATP over buffer (Cy3 cluster intensity, sum of 5 cycles each) (fold (ratio)); higher = stronger signal-on switching upon ATP binding; sequences stand for … in TCGTCGGCAGCGTCAGATGTGTATAAGAGACAGTTTTTTTTTTTTTTTTTTTTTTTTT…TC
Conditions: aptamer strand: ATP DNA aptamer (quencher-CACCTGGGGGAGTATTGCGGAGGAAGG + anchor), 100 nM annealed; ATP concentration: 500 uM
Outline: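 Per cluster, summed Cy3 intensity from the target cycles was divided by that from the buffer cycles to give the fluorescence ratio, then averaged per switch-domain sequence. Clusters outside 100-1000 RFU were excluded. The Cy3-labelled switching-strand clusters, on a modified Illumina MiSeq flow-cell, were annealed to 100 nM quencher-labelled ATP aptamer and imaged in selection buffer, then after 15 min with 500 uM ATP at 22 °C, for five cycles with NaOH stripping and re-annealing between them.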
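Also: ATP exposure 15 min at 22 °C before imaging.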

| Sequence | switch fluorescence ratio |
| --- | --- |
| TGGATCACTT | 1.01 ± 0.028 |
| TGGATCATAG | 0.999 ± 0.038 |
| TGGATCTTAT | 1.01 ± 0.034 |
| TGGATGAATT | 0.9981 ± 0.0045 |
| TGGATGATGG | 0.961 ± 0.019 |
| TGGATTACTT | 1.02 ± 0.026 |
| TGGATTAGGC | 1.01 ± 0.048 |
| TGGATTTAAT | 1.01 ± 0.049 |
| TGGATTTCGC | 1 ± 0.027 |
| TGGATTTTTG | 0.9666 ± 0.0042 |
| TGGCACGACA | 1.09 ± 0.042 |
| TGGCACTTTT | 1.006 ± 0.0063 |
| TGGCAGCAGG | 1 ± 0.024 |
| TGGCAGGCAC | 1.04 ± 0.012 |
| TGGCATCGGG | 1.01 ± 0.042 |
| TGGCCAAATT | 1.03 ± 0.019 |
| TGGCCGGCTT | 1.044 ± 0.0066 |
| TGGCCGTCAT | 0.98 ± 0.032 |
| TGGCCTTATT | 0.992 ± 0.011 |
| TGGCCTTGTG | 1.02 ± 0.051 |
| TGGCGAAGTT | 0.997 ± 0.024 |
| TGGCGAGGCG | 1.046 ± 0.0077 |
| TGGCGCGTAC | 1.81 ± 0.095 |
| TGGCGGGGCT | 0.9972 ± 0.0064 |
| TGGCGTGGGG | 1.01 ± 0.021 |

| Sequence | switch fluorescence ratio |
| --- | --- |
| TGGCGTTAGG | 0.977 ± 0.019 |
| TGGCTCTGGG | 1.04 ± 0.033 |
| TGGCTGCCGT | 0.988 ± 0.032 |
| TGGCTGGGGG | 1.09 ± 0.1 |
| TGGGAAAAAA | 0.985 ± 0.035 |
| TGGGAAAACG | 1.05 ± 0.078 |
| TGGGAAAAGG | 1.16 ± 0.31 |
| TGGGAAATAC | 2.11 ± 0.12 |
| TGGGAAATCG | 1.03 ± 0.014 |
| TGGGAACGAG | 1.01 ± 0.017 |
| TGGGAACGTC | 1.0205 ± 2.8e-05 |
| TGGGAACTTG | 0.991 ± 0.028 |
| TGGGAATAAT | 1.03 ± 0.031 |
| TGGGAATCAC | 1.05 ± 0.017 |
| TGGGAATGAA | 0.992 ± 0.021 |
| TGGGAATGGC | 0.9555 ± 0.0094 |
| TGGGAATTTC | 1.035 ± 0.0034 |
| TGGGACAAGC | 0.979 ± 0.032 |
| TGGGACAGCG | 0.957 ± 0.031 |
| TGGGACCCAT | 1.02 ± 0.055 |
| TGGGACCGGG | 1 ± 0.059 |
| TGGGACCTGG | 1.07 ± 0.15 |
| TGGGACGGGG | 0.984 ± 0.025 |
| TGGGACTGTA | 1.14 ± 0.073 |
| TGGGAGGTTG | 0.994 ± 0.04 |

| Sequence | switch fluorescence ratio |
| --- | --- |
| TGGGAGTAGC | 0.9907 ± 0.0091 |
| TGGGAGTTTC | 0.978 ± 0.01 |
| TGGGAGTTTT | 1.02 ± 0.047 |
| TGGGATAGAA | 0.996 ± 0.019 |
| TGGGATATA | 1.01 ± 0.056 |
| TGGGATCAGT | 0.99 ± 0.021 |
| TGGGATGTTA | 0.9872 ± 0.0074 |
| TGGGATTGAC | 1.06 ± 0.019 |
| TGGGATTTGA | 0.993 ± 0.023 |
| TGGGATTTTG | 1.014 ± 0.0028 |
| TGGGCAGATA | 1.08 ± 0.1 |
| TGGGCAGGCA | 1 ± 0.028 |
| TGGGCAGGGT | 1.02 ± 0.016 |
| TGGGCATAAA | 1.006 ± 0.0012 |
| TGGGCGCATT | 1.68 ± 0.88 |
| TGGGCGCCGT | 0.957 ± 0.017 |
| TGGGCGGGGA | 1.03 ± 0.048 |
| TGGGCTAAGC | 1.03 ± 0.028 |
| TGGGCTCGCC | 1 ± 0.025 |
| TGGGCTGTTT | 1.012 ± 0.01 |
| TGGGCTTAAG | 1.02 ± 0.026 |
| TGGGCTTCGT | 0.994 ± 0.038 |
| TGGGGAAACG | 0.9455 ± 0.0068 |
| TGGGGAATTG | 0.969 ± 0.053 |
| TGGGGAGAAA | 1 ± 0.031 |

| Sequence | switch fluorescence ratio |
| --- | --- |
| TGGGGAGGCT | 1.04 ± 0.055 |
| TGGGGAGGGC | 1 ± 0.035 |
| TGGGGATACC | 0.987 ± 0.035 |
| TGGGGATAGG | 1.01 ± 0.022 |
| TGGGGATCGG | 0.973 ± 0.025 |
| TGGGGATTAA | 0.991 ± 0.013 |
| TGGGGATTTA | 1.003 ± 0.0072 |
| TGGGGCACAT | 1.02 ± 0.022 |
| TGGGGCCCCG | 1 ± 0.013 |
| TGGGGCCGTG | 1.04 ± 0.04 |
| TGGGGCGAAA | 0.997 ± 0.089 |
| TGGGGCGAGG | 1.01 ± 0.014 |
| TGGGGCTAGG | 0.993 ± 0.018 |
| TGGGGCTGGT | 0.99 ± 0.018 |
| TGGGGCTTGG | 1.01 ± 0.051 |
| TGGGGGAATT | 1 ± 0.029 |
| TGGGGGACCC | 1 ± 0.061 |
| TGGGGGAGGG | 1 ± 0.054 |
| TGGGGGATG | 0.971 ± 0.018 |
| TGGGGGCGCG | 0.984 ± 0.042 |
| TGGGGGCTTG | 0.993 ± 0.024 |
| TGGGGGGACT | 1.02 ± 0.029 |
| TGGGGGGATC | 1.009 ± 0.0082 |
| TGGGGGGG | 1 ± 0.024 |
| TGGGGGGGA | 1.03 ± 0.031 |
